Measurements reported in patent US12559545 (VANDERBILT UNIVERSITY, dated 2026).

B1: HENV-32 (antibody, V domains shown)
VH: QVQLVQSGAEVKKPGSSVKVSCKVSGGIFNRETINWVRQAPGQGLEWMGRITPIVDVPNYPRKFRGRVTITADKSTSTVYMELSGLRFEDTAIYFCARFRGHNYFDPWGQGTLVTVSS
VL: SYVLTQPPSVSVAPGQTARITCGGNNIGGKSVHWYQQKPGQAPVLVVYDDRDRPSGIPERFSGSNSGDTASLTISRVDAGDEADYFCQVWDNASDEAVFGGGTKLTVL
B2: HENV-32 Fab (Fab, V domains shown)
VH: B1 VH
VL: B1 VL

Tests used:
[1] = target: T1, HeV RBP on live Hendra virus (Hendra virus, UniProt O89343 182-603); test: cell-based or functional assay
T1 sequence: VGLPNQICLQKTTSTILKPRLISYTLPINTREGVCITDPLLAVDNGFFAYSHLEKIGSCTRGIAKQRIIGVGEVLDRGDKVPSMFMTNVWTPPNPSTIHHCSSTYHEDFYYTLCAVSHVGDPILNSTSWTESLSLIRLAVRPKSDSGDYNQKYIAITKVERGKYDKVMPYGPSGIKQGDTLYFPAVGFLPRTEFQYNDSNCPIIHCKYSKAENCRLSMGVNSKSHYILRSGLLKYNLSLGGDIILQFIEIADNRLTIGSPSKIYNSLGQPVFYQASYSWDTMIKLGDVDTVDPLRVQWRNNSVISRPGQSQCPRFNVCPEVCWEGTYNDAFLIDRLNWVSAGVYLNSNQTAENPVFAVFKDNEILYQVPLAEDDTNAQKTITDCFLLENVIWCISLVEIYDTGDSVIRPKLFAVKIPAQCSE

[2] = target: NiVB RBP on live Nipah virus Bangladesh (Nipah virus, strain Bangladesh, UniProt Q9IH62 182-602); test: cell-based or functional assay
[3] = target: full-length NiVB-RBP expressed on the surface of transfected cells (Nipah virus, strain Bangladesh, UniProt Q9IH62 182-602)
[4] = target: T2, full-length NiVM-RBP expressed on the surface of transfected cells (Nipah virus, strain Malaysia, UniProt Q9IH62 182-602)
T2 sequence: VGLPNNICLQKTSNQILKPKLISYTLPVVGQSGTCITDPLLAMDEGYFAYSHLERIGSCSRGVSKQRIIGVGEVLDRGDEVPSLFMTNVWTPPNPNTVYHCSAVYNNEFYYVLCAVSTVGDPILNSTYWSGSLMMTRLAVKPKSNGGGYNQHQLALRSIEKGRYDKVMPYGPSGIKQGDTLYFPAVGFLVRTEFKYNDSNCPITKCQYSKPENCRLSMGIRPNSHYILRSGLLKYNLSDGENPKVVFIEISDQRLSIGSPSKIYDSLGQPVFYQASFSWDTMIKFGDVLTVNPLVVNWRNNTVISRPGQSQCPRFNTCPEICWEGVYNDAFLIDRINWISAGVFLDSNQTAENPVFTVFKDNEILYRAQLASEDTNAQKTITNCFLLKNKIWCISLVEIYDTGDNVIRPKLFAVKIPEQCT

[5] = target: T3, full-length HeV-RBP expressed on the surface of transfected cells (Hendra virus, UniProt O89343 182-603)
T3 sequence: T1 sequence

[6] = target: T4, HeV-RBP head domain (residues 185-604), recombinant soluble (Hendra virus, UniProt O89343 185-603); test: ELISA, RBP head domain coated on plate, hybridoma IgG
T4 sequence: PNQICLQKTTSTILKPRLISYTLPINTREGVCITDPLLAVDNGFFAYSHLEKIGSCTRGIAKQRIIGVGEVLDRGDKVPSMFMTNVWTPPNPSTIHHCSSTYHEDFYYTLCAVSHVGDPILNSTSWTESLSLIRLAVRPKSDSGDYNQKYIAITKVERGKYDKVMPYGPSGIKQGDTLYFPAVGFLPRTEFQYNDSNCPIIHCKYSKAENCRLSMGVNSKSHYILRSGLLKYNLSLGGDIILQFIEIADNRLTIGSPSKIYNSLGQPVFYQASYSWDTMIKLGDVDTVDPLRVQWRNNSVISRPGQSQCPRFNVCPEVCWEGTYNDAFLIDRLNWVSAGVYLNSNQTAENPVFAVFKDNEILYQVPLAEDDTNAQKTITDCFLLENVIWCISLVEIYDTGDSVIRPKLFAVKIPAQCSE

[7] = target: T5, NiVM-RBP head domain (residues 183-602), recombinant soluble (Nipah virus, strain Malaysia, UniProt Q9IH62 183-602); test: as above
T5 sequence: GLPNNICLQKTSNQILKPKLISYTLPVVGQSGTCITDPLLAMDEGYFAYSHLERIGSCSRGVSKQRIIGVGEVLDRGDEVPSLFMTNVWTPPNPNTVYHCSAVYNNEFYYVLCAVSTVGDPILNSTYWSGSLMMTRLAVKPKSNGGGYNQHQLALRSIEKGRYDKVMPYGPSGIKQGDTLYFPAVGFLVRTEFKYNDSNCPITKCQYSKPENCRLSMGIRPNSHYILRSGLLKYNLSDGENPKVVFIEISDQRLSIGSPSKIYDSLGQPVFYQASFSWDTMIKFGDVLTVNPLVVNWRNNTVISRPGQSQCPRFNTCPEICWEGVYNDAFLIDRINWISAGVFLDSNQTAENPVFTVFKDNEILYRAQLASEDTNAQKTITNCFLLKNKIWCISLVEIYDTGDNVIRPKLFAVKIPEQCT

[8] = target: T6, NiVB-RBP head domain (residues 185-602), recombinant soluble (Nipah virus, strain Bangladesh, UniProt Q9IH62 185-602); test: as above
[9] = target: T4, HeV-RBP head domain (residues 185-604), …
[10] = target: T5, NiVM-RBP head domain (residues …)
[11] = target: T6, NiVB-RBP head domain (residues …)

| Binder | IC50, plaque reduction neutralization of live virus [1] [µg/mL] | IC50, plaque reduction neutralization of live virus [2] [µg/mL] | EC50 [3] [µg/mL] | EC50 [4] [µg/mL] | EC50 [5] [µg/mL] | Area under the curve [6] | EC50 [6] [µg/mL] | Area under the curve [7] | EC50 [7] [µg/mL] | Area under the curve [8] | EC50 [8] [µg/mL] | Kd [9] [nM] | Kd [10] [nM] | Kd [11] [nM] |
| --- | --- | --- | --- | --- | --- | --- | --- | --- | --- | --- | --- | --- | --- | --- |
| B1 | 0.27 | 0.38 | 0.836 | 0.76 | 0.68 | 3.71 | 0.36 | 8 | 0.42 | 6.6 | 0.96 | – | – | – |
| B2 | – | – | – | – | – | – | – | – | – | – | – | 2.1 | 2.2 | 2.8 |
